This note sets out measurements from article doi:10.1101/2022.05.18.492403.

In this experiment the target is recombinant C-terminal StrepII-tagged SbtB from Synechocystis sp. PCC 6803 (ScSbtB), wildtype (Synechocystis sp. PCC 6803), P73954. Put plainly: crystal structure. Conditions: remark: other sources report otherwise.

B1: recombinant C-terminal StrepII-tagged SbtB from Synechocystis sp. PCC 6803 (ScSbtB), wildtype, P73954 1-110 (natural protein)
chain: MAKPANKLVIVTEKILLKKIAKIIDESGAKGYTVMNTGGKGSRNVRSSGQPNTSDIEANIKFEILTETREMAEEIADRVAVKYFNDYAGIIYICSAEVLYGHTFCGPEGC
For orientation: stoichiometry N means the number of molecules, sites or subunits per partner or assembly. Turning to B1, the stoichiometry N was determined as 3.
